From PMC2788276 (Protein Science : A Publication of the Protein Society, 2009)

Experiments:
[1] = target: HCoV-OC43 N233-300 (central linker) (Human coronavirus OC43, UniProt P33469 233-300); test: SPR
[2] = target: HCoV-OC43 N301-448 (C-terminal domain) (Human coronavirus OC43, UniProt P33469 301-448); test: SPR
[3] = target: HCoV-OC43 N1-173 (N-terminal domain) (Human coronavirus OC43, UniProt P33469 1-173); test: SPR
cross-linking = target: the molecule itself; test: cross-linking

Chain of HCoV-OC43 N1-173 (N-terminal domain) (P33469 1-173): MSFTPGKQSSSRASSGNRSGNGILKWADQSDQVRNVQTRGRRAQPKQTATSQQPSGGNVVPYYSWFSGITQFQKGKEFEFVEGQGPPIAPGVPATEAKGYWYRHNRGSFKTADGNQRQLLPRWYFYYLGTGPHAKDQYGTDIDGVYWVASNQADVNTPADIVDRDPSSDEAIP

B1: (UCUAAAC)4 intergenic repeat RNA (ssRNA)
RNA: UCUAAACUCUAAACUCUAAACUCUAAAC
- Kd [1]: 64.1 ± 7.2 nM
- binding result [2]: no binding
- Kd [3]: 68.9 ± 8.4 nM

B2: HCoV‐OC43 N protein, residues 233–448 (domain or fragment)
chain: ADQIASLVLAKLGKDATKPQQVTKHTAKEVRQKILNKPRQKRSPNKQCTVQQCFGKRGPNQNFGGGEMLKLGTSDPQFPILAELAPTAGAFFFGSRLELAKVQNLSGNPDEPQKDVYELRYNGAIRFDSTLSGFETIMKVLNENLNAYQQQDGMMNMSPKPQRQRGHKNGQGENDNISVAVPKSRVQQNKSRELTAEDISLLKKMDEPYTEDTSEI
- binding result (cross-linking): binds
